Data taken from article PMC4503747.
Where “and” joins values, the source holds several entries; their conditions need not be identical. Equal values may be shown once.

Target: GST-Yih1[2–258], overexpressed in yeast from a galactose-inducible promoter (S. cerevisiae) (UniProt P25637)
Assay: pull-down; in vivo GST pull-down: GST fusions overexpressed in yeast from a galactose-inducible promoter (yih1Δ strains; gcn1Δ strain H2556 for the fragments; also cells arrested in G1 with α-factor and released), WCE (1-2 mg) on glutathione beads, immunoblot for endogenous proteins

Sequence of GST-Yih1[2–258], overexpressed in yeast from a galactose-inducible promoter (S. cerevisiae) (P25637 2-258): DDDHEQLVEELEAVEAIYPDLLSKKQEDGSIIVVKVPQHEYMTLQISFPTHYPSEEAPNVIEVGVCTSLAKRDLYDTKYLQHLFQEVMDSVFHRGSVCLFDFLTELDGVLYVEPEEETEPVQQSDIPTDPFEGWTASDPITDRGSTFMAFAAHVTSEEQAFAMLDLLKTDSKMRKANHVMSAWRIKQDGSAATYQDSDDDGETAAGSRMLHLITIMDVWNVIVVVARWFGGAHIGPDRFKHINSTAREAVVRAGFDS

fold increase of precipitated Cdc28 relative to GST-Yih1 in S-G2/M (30, 60 and 90 minutes after release) against cells arrested in G1 with α-factor: 2 fold and 3 fold
Substance: Cdc28 (endogenous, yeast whole cell extract) (from UniProt P00546 1-298) (natural protein)
